For data set [1] the following is noted: cited from earlier work.
For data set [2] the following is noted: cited from earlier work. This is another data set of the same source.
The conditions of data set [3]: cited from earlier work. This is another data set of the same source.
Data set [4] can be described thus: Autooxidation of oxy-ferrous DevS proteins to the ferric. Format: physicochemical, Mycobacterium tuberculosis. To be noted: for autooxidation rate k / autooxidation t1/2: 25 °C.
Data set [5] is described as follows: CO association and dissociation kinetics of DevS proteins, stopped flow. In kind it is binding, Mycobacterium tuberculosis. To be noted: 4 °C; for Kd: read-out: CO Kd, from koff and kon; for CO koff / CO kon: stopped flow; for CO koff: displacement with air saturated buffer or NO solutions; for CO kon: phosphate buffer (50 mM) pH 7.5, 200 mM NaCl, 1 mM EDTA.
The nature of data set [6]: Oxygen association rates of DevS proteins, laser flash photolysis. Format: binding, Mycobacterium tuberculosis. To be noted: pH 7.5 phosphate buffer (20 mM), 200 mM NaCl, 1 mM EDTA.
Data set [7] can be described thus: Oxygen dissociation rates of DevS proteins, stopped flow. In kind it is binding, Mycobacterium tuberculosis. To be noted: read-out: O2 Kd; from koff and kon.
A further data set deals with DevS kinase. To be noted: cited from earlier work.
Setting [8] is: phosphate buffer (50 mM), pH 7.5, 1 mM EDTA and 200 mM NaCl.
Setting [9] is: ferrous unligated form (5c complex).
Where [10] appears, read: ligand binding: O2 (oxy ferrous 6c species).
Setting [11] is: CaCl2 0.1 mM, hepes buffer (20 mM), pH 7.5, Chelex 100.
Setting [12] is: CuCl2 10 µM, hepes buffer (20 mM), pH 7.5, Chelex 100.
The mark [13] stands for this setting: FeCl3 0.1 mM (nominal), hepes buffer (20 mM), pH 7.5, Chelex 100.
Setting [14] is: KCl 200 mM, hepes buffer (20 mM), pH 7.5, pretreated with Chelex 100.
The mark [15] stands for this setting: MgCl2 1 mM, hepes buffer (20 mM), pH 7.5, Chelex 100.
Setting [16] is: NaCl 200 mM, hepes buffer (20 mM), pH 7.5, Chelex 100.

Where two headings read alike, the source gives them in different places.

The values below come from paper PMC2756985 (Biochemistry, 2009).

Usually Kd stands for a measure of binding affinity in units of concentration.

B1: EcDos: Escherichia coli Dos, heme-regulated phosphodiesterase (protein, UniProt P76129 1-799, looked up)
Oxygen sensor protein DosP: MKLTDADNAADGIFFPALEQNMMGAVLINENDEVMFFNPAAEKLWGYKREEVIGNNIDMLIPRDLRPAHPEYIRHNREGGKARVEGMSRELQLEKKDGSKIWTRFALSKVSAEGKVYYLALVRDASVEMAQKEQTRQLIIAVDHLDRPVIVLDPERHIVQCNRAFTEMFGYCISEASGMQPDTLLNIPEFPADNRIRLQQLLWKTARDQDEFLLLTRTGEKIWIKASISPVYDVLAHLQNLVMTFSDITEERQIRQLEGNILAAMCSSPPFHEMGEIICRNIESVLNESHVSLFALRNGMPIHWASSSHGAEIQNAQSWSATIRQRDGAPAGILQIKTSSGAETSAFIERVADISQHMAALALEQEKSRQHIEQLIQFDPMTGLPNRNNLHNYLDDLVDKAVSPVVYLIGVDHIQDVIDSLGYAWADQALLEVVNRFREKLKPDQYLCRIEGTQFVLVSLENDVSNITQIADELRNVVSKPIMIDDKPFPLTLSIGISYDLGKNRDYLLSTAHNAMDYIRKNGGNGWQFFSPAMNEMVKERLVLGAALKEAISNNQLKLVYQPQIFAETGELYGIEALARWHDPLHGHVPPSRFIPLAEEIGEIENIGRWVIAEACRQLAEWRSQNIHIPALSVNLSALHFRSNQLPNQVSDAMHAWGIDGHQLTVEITESMMMEHDTEIFKRIQILRDMGVGLSVDDFGTGFSGLSRLVSLPVTEIKIDKSFVDRCLTEKRILALLEAITSIGQSLNLTVVAEGVETKEQFEMLRKIHCRVIQGYFFSRPLPAEEIPGWMSSVLPLKI
For the molecule B1, in data set [1], the autooxidation rate k is 0.7 h⁻¹ and the “autooxidation t1/2” value is on record as 1 h.

B2: Bovine Mb: bovine myoglobin (protein, UniProt P02192 2-154, looked up)
Myoglobin: GLSDGEWQLVLNAWGKVEADVAGHGQEVLIRLFTGHPETLEKFDKFKHLKTEAEMKASEDLKKHGNTVLTALGGILKKKGHHEAEVKHLAESHANKHKIPVKYLEFISDAIIHVLHAKHPSDFGADAQAAMSKALELFRNDMAAQYKVLGFHG
For the molecule B2, the “autooxidation t1/2” value in data set [1] (pH 9, 25 °C) was 63 h.

B3: BjFixL: FixL gas sensor kinase (literature comparator) (protein, UniProt P23222 1-505, looked up)
Sensor protein FixL: MAPTRVTHPPDDGRGEHFRVRIEGFGVGTWDLDLKTWALDWSDTARTLLGIGQDQPASYDLFLSRLEPDDRERVESAIKRVSERGGGFDVSFRVAGTSNAGQWIRARAGLIRDEAGTARHLSGIFLDIDEEKQVEGALRTRETHLRSILHTIPDAMIVIDGHGIIQLFSTAAERLFGWSELEAIGQNVNILMPEPDRSRHDSYISRYRTTSDPHIIGIGRIVTGKRRDGTTFPMHLSIGEMQSGGEPYFTGFVRDLTEHQQTQARLQELQSELVHVSRLSAMGEMASALAHELNQPLAAISNYMKGSRRLLAGSSDPNTPKVESALDRAAEQALRAGQIIRRLRDFVARGESEKRVESLSKLIEEAGALGLAGAREQNVQLRFSLDPGADLVLADRVQIQQVLVNLFRNALEAMAQSQRRELVVTNTPAADDMIEVEVSDTGSGFQDDVIPNLFQTFFTTKDTGMGVGLSISRSIIEAHGGRMWAESNASGGATFRFTLPAADEN
In the case of B3, in data set [2], the CO koff was 0.045 s⁻¹ and the CO kon was 5000 M⁻¹ s⁻¹. The Kd in data set [2] (read-out: CO Kd) is 9 µM. In data set [3], the O2 koff is 20 s⁻¹ and the O2 kon was 145000 M⁻¹ s⁻¹. The Kd in data set [3] (read-out: O2 Kd) is 138 µM. Besides, in data set [1] (pH7, 37 °C), the autooxidation rate k is 2.8 h⁻¹ and the “autooxidation t1/2” value is on record as 0.25 h.

B4: full-length Y171F DevS (protein, UniProt P9WGK3 1-578, looked up, variant Y171F)
chain: MTTGGLVDENDGAAMRPLRHTLSQLRLHELLVEVQDRVEQIVEGRDRLDGLVEAMLVVTAGLDLEATLRAIVHSATSLVDARYGAMEVHDRQHRVLHFVYEGIDEETVRRIGHLPKGLGVIGLLIEDPKPLRLDDVSAHPASIGFPPYHPPMRTFLGVPVRVRDESFGTLFLTDKTNGQPFSDDDEVLVQALAAAAGIAVANARLYQQAKARQSWIEATRDIATELLSGTEPATVFRLVAAEALKLTAADAALVAVPVDEDMPAADVGELLVIETVGSAVASIVGRTIPVAGAVLREVFVNGIPRRVDRVDLEGLDELADAGPALLLPLRARGTVAGVVVVLSQGGPGAFTDEQLEMMAAFADQAALAWQLATSQRRMRELDVLTDRDRIARDLHDHVIQRLFAIGLALQGAVPHERNPEVQQRLSDVVDDLQDVIQEIRTTIYDLHGASQGITRLRQRIDAAVAQFADSGLRTSVQFVGPLSVVDSALADQAEAVVREAVSNAVRHAKASTLTVRVKVDDDLCIEVTDNGRGLPDEFTGSGLTNLRQRAEQAGGEFTLASVPGASGTVLRWSAPLSQ
modifications: full-length
With B4, the autooxidation rate k in data set [4] (setting [8]) is 0.012 h⁻¹. Further, in data set [5], the Kd amounted to 3.33 µM, the CO koff is 2.43 ± 0.15 ^b s^−1 and the CO kon is 0.73 ± 0.071 ^b µM^−1s^−1. The O2 kon in data set [6] is reported as 32.4 ^a µM^−1s^−1. Further, the Kd in data set [7] was 0.12 µM. Moreover, the kinase activity result with DevS kinase (setting [9]) is recorded as “active”. Moreover, in the data set with DevS kinase (setting [10]), the kinase activity entry is “inactive”.

B5: DevS: full length wild-type heme sensor kinase DevS of Mycobacterium tuberculosis (protein, UniProt P9WGK3 1-578, looked up)
chain: MTTGGLVDENDGAAMRPLRHTLSQLRLHELLVEVQDRVEQIVEGRDRLDGLVEAMLVVTAGLDLEATLRAIVHSATSLVDARYGAMEVHDRQHRVLHFVYEGIDEETVRRIGHLPKGLGVIGLLIEDPKPLRLDDVSAHPASIGFPPYHPPMRTFLGVPVRVRDESFGTLYLTDKTNGQPFSDDDEVLVQALAAAAGIAVANARLYQQAKARQSWIEATRDIATELLSGTEPATVFRLVAAEALKLTAADAALVAVPVDEDMPAADVGELLVIETVGSAVASIVGRTIPVAGAVLREVFVNGIPRRVDRVDLEGLDELADAGPALLLPLRARGTVAGVVVVLSQGGPGAFTDEQLEMMAAFADQAALAWQLATSQRRMRELDVLTDRDRIARDLHDHVIQRLFAIGLALQGAVPHERNPEVQQRLSDVVDDLQDVIQEIRTTIYDLHGASQGITRLRQRIDAAVAQFADSGLRTSVQFVGPLSVVDSALADQAEAVVREAVSNAVRHAKASTLTVRVKVDDDLCIEVTDNGRGLPDEFTGSGLTNLRQRAEQAGGEFTLASVPGASGTVLRWSAPLSQ
modifications: full-length
Consider B5, for which the autooxidation half life result in data set [4] (0.1 mM Cu2+) is given as “less than 2 min”; in data set [1] (37 °C, full length DevS from a slow expressing vector) it was 4 h. Also, the autooxidation rate k stood at 0.0049 h⁻¹ in data set [4] (setting [11]); 0.062 h⁻¹ in data set [4] (setting [12]); 25 h⁻¹ in data set [4] (CuCl2 0.1 mM, hepes buffer (20 mM), pH 7.5, Chelex 100); 0.09 h⁻¹ in data set [4] (setting [13]); 0.013 h⁻¹ in data set [4] (setting [14]); 0.012 h⁻¹ in data set [4] (setting [15]). Also, the autooxidation rate k in data set [4] (setting [16]) is 0.010 h⁻¹; in data set [4] (hepes 20 mM, pH 7.5, pretreated with Chelex 100, no added cation) it was 0.0033 h⁻¹; in data set [4] (setting [8]), 0.019 h⁻¹. In addition, the “autooxidation t1/2” value in data set [4] (setting [11]) is on record as 170 h; in data set [4] (setting [12]), 11 h; in data set [4] (setting [13]), 7.8 h; in data set [4] (setting [14]), 78 h; in data set [4] (setting [15]), 59 h; in data set [4] (setting [16]) it was 96 h. Moreover, the “autooxidation t1/2” value is given as greater than 30 h in data set [4] (setting [8]); 73.6 h in data set [4] (phosphate buffer (50 mM), pH 7.5, 1 mM EDTA and 200 mM NaCl, listed as Full length wild-type DevS). The “decrease of autooxidation rate on tenfold decrease in Cu2+ concentration” value in data set [4] (Cu2+ from 100 to 10 µM) is recorded as “over 300 fold”. For the same molecule, the autooxidation half-lives result in data set [4] (in the absence of Fe3+ and Cu2+) was “greater than one day”. Further, the autooxidation rates in data set [4] (in the presence of K+, Na+, Mg2+, and Ca2+) was 0.005 to 0.02 h⁻¹. For the same molecule, the Kd in data set [5] was 8.29 µM; in data set [7], 0.58 µM. Also, in data set [5], the CO koff is on record as 2.57 ± 0.40 ^b s^−1. For the same molecule, in data set [5], the CO kon is recorded as 0.31 ± 0.031 ^b µM^−1s^−1. Further, the O2 kon in data set [6] is given as 11.8 ^a µM^−1s^−1. Further, the kinase activity entry with DevS kinase (setting [9]) was “active”; in the data set on DevS kinase (ferrous unligated form (5c complex), listed as wild-type DevS), “intermediate kinase activity”; in the data set on DevS kinase (ligand binding: CO and NO), “further activates the kinase”; in the data set with DevS kinase (setting [10]) it was “inactive”; in the data set with DevS kinase (ligand binding: O2 (oxy ferrous 6c species), listed as wild-type DevS) it was “completely inactivates it”.
